Measured values published in IntAct's records for PubMed 17525731.

Key:
[1] = target: Creb1, Q01147-1
[2] = target: creb1_mouse Creb1 (UniProt Q01147)
[3] = target: creb1_mouse Creb1 (UniProt Q01147); remark: listed apart in the source

creb1_mouse Creb1, sequence (Q01147 whole entry): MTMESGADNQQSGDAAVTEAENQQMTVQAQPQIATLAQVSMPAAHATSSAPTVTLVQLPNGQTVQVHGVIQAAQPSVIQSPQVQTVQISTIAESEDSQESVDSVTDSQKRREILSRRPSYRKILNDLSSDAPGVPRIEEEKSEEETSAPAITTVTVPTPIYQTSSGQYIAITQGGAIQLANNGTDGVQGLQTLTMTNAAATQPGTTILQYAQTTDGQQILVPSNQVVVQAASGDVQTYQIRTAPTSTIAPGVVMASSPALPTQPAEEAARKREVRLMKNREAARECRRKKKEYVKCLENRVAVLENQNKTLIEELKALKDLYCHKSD
Creb1, Q01147-1, sequence (Q01147 other isoform, or with tags, fused parts or gaps): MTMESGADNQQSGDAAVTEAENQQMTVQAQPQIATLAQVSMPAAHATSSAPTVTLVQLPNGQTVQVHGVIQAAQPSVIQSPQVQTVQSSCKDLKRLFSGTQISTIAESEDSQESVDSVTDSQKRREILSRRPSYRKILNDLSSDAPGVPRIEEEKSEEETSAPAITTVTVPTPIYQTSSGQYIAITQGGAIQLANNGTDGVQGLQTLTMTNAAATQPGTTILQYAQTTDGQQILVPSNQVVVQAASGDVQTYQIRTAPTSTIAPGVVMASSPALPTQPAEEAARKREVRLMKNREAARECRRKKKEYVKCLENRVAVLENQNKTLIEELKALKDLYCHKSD

Substance	effect of a mutation on the interaction [1]	effect of a mutation on the interaction [2]	effect of a mutation on the interaction [3]
Histone lysine acetyltransferase CREBBP (Mus musculus), P45481 A654Q	disrupting interaction	disrupting interaction	
Histone acetyltransferase p300 (Homo sapiens), Q09472 Y638A			disrupting interaction
Histone acetyltransferase p300 (Homo sapiens), Q09472 A634Q			disrupting interaction
Histone lysine acetyltransferase CREBBP (Mus musculus), P45481 Y650A	disrupting interaction	disrupting interaction	
Histone acetyltransferase p300 (Homo sapiens), Q09472 Y630A			disrupting interaction
Histone lysine acetyltransferase CREBBP (Mus musculus), P45481 Y658A	disrupting interaction	disrupting interaction	
